Results published in patent US8287851B2, “Use of interleukin 17E for the treatment of cancer” (Lorus Therapeutics Inc., priority 2005, dated 2012).

How the values were obtained:
splenic B cells = experiment: Splenic B cell numbers and activation in C8161 tumour bearing mice (flow cytometry); type: in vivo, CD-1 nude mice; details: C8161-engrafted mice
Protocol: The increase in B cells was examined in BD-BRM-treated CD-1 nude mice. Briefly, the mice with human melanoma xenografts were treated for 4 weeks with either BD-BRM or PBS, as described in the preceding examples. Splenocytes were examined by flow cytometry for B cells using anti-IgM antibodies.
Antibodies fluorescein isothiocyanate (FITC)-anti-mouse IgM (eB121-15F9; IgG2a), phycoerythrin (PE) anti-mouse CD86 (GL1; IgG2a) and PE anti-mouse CD80 (16-10A1; hamster IgG) were purchased from eBioscience (San Diego, Calif.).
Flow cytometry was performed as described above. Briefly, splenocytes were isolated individually from CD1-nude C8161 tumour bearing mice treated 4 weeks with BD-BRM or PBS. Red blood cells were removed, followed by surface staining with (A) anti-IgM antibody-FITC or (B) anti-IgM-FITC and anti-CD80-PE+anti-CD86-PE by flow cytometry.
The effect of interleukin 17E on increased percentage of splenic eosinophils and B cells and the proportion of activated splenic B cells was examined. CD1-nude mice engrafted with C8161 human melanoma cells were treated with either PBS, murine IL-17E, or human IL-17E as described previously. At the endpoint of the experiment, spleens were isolated from treated mice, stained with markers specific for eosinophils (CCR3+), B cells (either IgM+ or CD19+), and B cell activation (CD-80+, CD86+), and examined by flow cytometry. Flow cytometry was performed as described in Example 4 above.
The percentage of eosinophils was determined by surface staining the granulocyte-gated population with phycoerythrin (PE)-conjugated anti-mouse CCR3. The percentage of B cells in the spleen was examined by surface staining with phycoerythrin (PE)-conjugated anti-mouse CD19. The proportion of activated splenic B cells was determined by staining with FITC-conjugated anti-mouse IgM together with PE-conjugated anti-mouse CD80 and PE-conjugated anti-mouse CD86. Statistical analysis was performed to compare eosinophil and B cell numbers/activation. P values <0.01 were considered to be significant.
In order to confirm that the effect of BD-BRM on splenic B cells as described in Example 5 is due to interleukin 17E activity, the effect of interleukin 17E on numbers and activation status of splenic B cells was examined. CD1-nude mice engrafted with C8161 human melanoma cells were treated with either PBS or murine IL-17E as described previously. At the endpoint of the experiment, spleens were isolated from treated mice, stained with markers specific for B cells (IgM+), and B cell activation (CD-80+, CD86+), and examined by flow cytometry. Flow cytometry was performed as described in Example 4 above.
Splenocytes were analyzed for the percentage of B cells by surface staining with FITC-conjugated anti-mouse IgM antibodies. Activated B cells were determined by surface staining with FITC-conjugated-anti-mouse IgM antibodies, and PE-conjugated-anti-mouse CD80 and PE-conjugated-anti-mouse CD86. Statistical analysis was performed to compare B cell numbers/activation. P values <0.01 were considered to be significant.

[1] = test system: B cell linker protein BLNK; experiment: BLNK phosphorylation in B cell lymphoma cell line WEHI-231 (Western blot); type: cell-based; details: 0.21 μg per 1.5×10^6 WEHI-231 cells, 0, 2, 5 minutes
Source text: The effect of IL-17E on activation of signaling pathways in B cells was examined using the B cell lymphoma cell line WEHI-231 (Lanier L. L., et al. (1981) J. Immunol. 126:626-31). Specifically, the activation status of the protein tyrosine kinase Lyn and the B cell linker protein BLNK (Tsubata, T., et al., (2001) Int Rev Immunol 20:675-8) were examined. An increased level of the phosphorylated forms of these proteins is indicative of activation.
A total of 1.5×10^6 cells per sample were stimulated in vitro with 0.21 μg of either human IL-17E or murine IL17E at 37° C. Cells were lysed at time points t=0, 2, and 5 minutes in lysis buffer for 30 minutes on ice, followed by centrifugation for 10 minutes. Samples containing approximately 25 μg of protein were separated by SDS-PAGE, followed by transfer to membranes for Western blotting.
For detection of phosphorylated BLNK, Western blots were incubated with rabbit anti-phospho-BLNK antibodies, followed by horseradish peroxidase (HRP)-conjugated anti-rabbit antibodies.
To assess equivalence in protein loading among lanes in both experiments, blots were stripped of antibodies and incubated with mouse anti-GAPDH antibodies and HRP-conjugated anti-mouse antibodies, followed by chemiluminescence-based detection.

[2] = test system: eosinophils (CCR3+) in spleen; experiment: Eosinophils (CCR3+) in spleen of C8161 tumour xenografted mice; type: in vivo, CD-1 nude mice; details: C8161-engrafted mice, Example 21
Protocol: Briefly, single cell suspensions of spleen cells were obtained by meshing and passing through a cell strainer (70 um; Bectin Dickinson) to separate fibrous tissue. Erythrocytes were lysed with ACK (0.155 M ammonium chloride, 0.1 mM disodium EDTA, 0.01 M potassium bicarbonate, pH 7.3) for 5 minutes on ice. The single cell suspensions of spleen cells were then analyzed by flow cytometry for the presence of eosinophils by surface staining with an antibody to CCR3 using the method as described in Example 13.
The effect of interleukin 17E on increased percentage of splenic eosinophils and B cells and the proportion of activated splenic B cells was examined. CD1-nude mice engrafted with C8161 human melanoma cells were treated with either PBS, murine IL-17E, or human IL-17E as described previously. At the endpoint of the experiment, spleens were isolated from treated mice, stained with markers specific for eosinophils (CCR3+), B cells (either IgM+ or CD19+), and B cell activation (CD-80+, CD86+), and examined by flow cytometry. […]
The percentage of eosinophils was determined by surface staining the granulocyte-gated population with phycoerythrin (PE)-conjugated anti-mouse CCR3. […] The proportion of activated splenic B cells was determined by staining with FITC-conjugated anti-mouse IgM together with PE-conjugated anti-mouse CD80 and PE-conjugated anti-mouse CD86. […]

Row | Molecule | percentage of splenic B cells (CD19+) as compared to PBS (splenic B cells; Example 21) | proportion of activated B cells (IgM, CD80, CD86) in the spleen as compared to PBS (splenic B cells; Example 21) | levels of phosphorylated BLNK protein [1] | percentage of splenic eosinophils (CCR3+, granulocyte-gated) as compared to PBS [2] | percentage of splenic B cells (IgM+) as compared to PBS (splenic B cells; Example 22) | proportion of activated B cells (IgM, CD80, CD86) in the spleen as compared to PBS (splenic B cells; Example 22)
1 | human IL-17E: Recombinant human IL-17E from PeproTech; two 145 amino acid chains, predominant form starting at Tyr 33 of GenBank AAG40848 (protein, listed as Homo sapiens) YSHWPSCCPSKGQDTSEELLRWSTVPVPPLEPARPNRHPESCRASEDGPLNSRAISPWRYELDRDLNRLPQDLYHARCLCPHCVSLQTGSHMDPRGNSELLYHNQTVFYRRPCHGEKGTHKGYCLERRLYRVSLACVCVRPRVMG | significantly increased | significantly increased | increased | significantly increased |  | 
2 | murine IL-17E: Murine IL-17E from R&D Systems; predominant form starting at Val 17 of GenBank NP 542767 (protein) VSLRIQEGCSHLPSCCPSKEQEPPEEWLKWSSASVSPPEPLSHTHHAESCRASKDGPLNSRAISPWSYELDRDLNRVPQDLYHARCLCPHCVSLQTGSHMDPLGNSVPLYHNQTVFYRRPCHGEEGTHRRYCLERRLYRVSLACVCVRPRVMA | significantly increased | significantly increased | increased | significantly increased | significantly increased | significantly increased
